What all share (assay): SEC
The target of assay [1] is endogenous Xenopus Cdt1/RLF-B (Xenopus (endogenous in egg extract)) (UniProt Q9I9A7).
Assay [2] shares this target. This is another data set of the same source.
Assay [3] has the same target. This is another data set of the same source.

Where two headings read alike, the source gives them in different places.

UniProt Q9I9A7, sequence (Q9I9A7 whole entry): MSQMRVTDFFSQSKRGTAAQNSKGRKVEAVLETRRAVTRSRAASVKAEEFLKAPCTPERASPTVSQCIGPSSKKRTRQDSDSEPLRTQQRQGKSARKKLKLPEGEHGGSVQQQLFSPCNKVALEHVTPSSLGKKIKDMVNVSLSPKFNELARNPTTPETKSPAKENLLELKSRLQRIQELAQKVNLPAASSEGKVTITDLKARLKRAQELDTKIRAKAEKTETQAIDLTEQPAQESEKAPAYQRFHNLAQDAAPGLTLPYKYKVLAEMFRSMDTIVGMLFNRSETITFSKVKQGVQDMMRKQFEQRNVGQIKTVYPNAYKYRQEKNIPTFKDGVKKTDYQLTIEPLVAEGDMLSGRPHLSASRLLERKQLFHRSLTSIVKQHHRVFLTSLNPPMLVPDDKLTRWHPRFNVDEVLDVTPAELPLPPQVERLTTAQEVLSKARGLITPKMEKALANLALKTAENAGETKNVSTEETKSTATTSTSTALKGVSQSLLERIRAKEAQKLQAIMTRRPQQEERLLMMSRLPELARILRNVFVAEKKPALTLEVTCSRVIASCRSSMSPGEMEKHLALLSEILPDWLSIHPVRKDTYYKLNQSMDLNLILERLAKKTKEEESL

For the substance “endogenous Xenopus geminin (from UniProt O93352 1-219) (natural protein)”, the percent of geminin co-fractionating with Cdt1/RLF-B in assay [1] amounted to 24%; in assay [2] it was 61%; in assay [3], 45%. Further, the percent of geminin in the smaller complex without Cdt1/RLF-B in assay [2] was above 95%.
